Laboratory results published in article PMC11926218, “Structure and unusual binding mechanism of the hyaluronan receptor LYVE-1 mediating leucocyte entry to lymphatics” (Nature Communications, 2025).

Target: the molecule itself
Experiment: SEC; Superdex Increase 200 10/300GL, protein in PBS after His Trap purification; step run to remove aggregates

B1: wild-type hLYVE-1 Δ238 His10 (soluble full ectodomain of human LYVE-1) (domain or fragment, UniProt Q9Y5Y7 20-238, looked up)
chain: LVQGSLRAEELSIQVSCRIMGITLVSKKANQQLNFTEAKEACRLLGLSLAGKDQVETALKASFETCSYGWVGDGFVVISRISPNPKCGKNGVGVLIWKVPVSRQFAAYCYNSSDTWTNSCIPEIITTKDPIFNTQTATQTTEFIVSDSTYSVASPYSTIPAPTTTPPAPASTSIPRRKKLICVTEVFMETSTMSTETEPFVENKAAFKNEAAGFGGVPT
notes: signal peptide in the construct; Obtained as a mixture of monomer and disulfide-linked homodimer; The protein is glycosylated, made in CHO cells; also called hLYVE-1 full wild-type ectodomain; hLYVE-1 Δ238 with a His10 single tag; source: CHO-K1, transfected (pEE14), culture supernatant, purified (His Trap, size exclusion chromatography); not shown: His10, C-terminal, kept
- binding result: binds
